B1: Protein SHMOOSE (Homo sapiens), C0HM83 (parent)
chain: MPPCLTTWLSQLLKDNSYPLVLGPKNFGATPNKSNNHAHYYNHPNPDFPNSPHPYHPR
partner: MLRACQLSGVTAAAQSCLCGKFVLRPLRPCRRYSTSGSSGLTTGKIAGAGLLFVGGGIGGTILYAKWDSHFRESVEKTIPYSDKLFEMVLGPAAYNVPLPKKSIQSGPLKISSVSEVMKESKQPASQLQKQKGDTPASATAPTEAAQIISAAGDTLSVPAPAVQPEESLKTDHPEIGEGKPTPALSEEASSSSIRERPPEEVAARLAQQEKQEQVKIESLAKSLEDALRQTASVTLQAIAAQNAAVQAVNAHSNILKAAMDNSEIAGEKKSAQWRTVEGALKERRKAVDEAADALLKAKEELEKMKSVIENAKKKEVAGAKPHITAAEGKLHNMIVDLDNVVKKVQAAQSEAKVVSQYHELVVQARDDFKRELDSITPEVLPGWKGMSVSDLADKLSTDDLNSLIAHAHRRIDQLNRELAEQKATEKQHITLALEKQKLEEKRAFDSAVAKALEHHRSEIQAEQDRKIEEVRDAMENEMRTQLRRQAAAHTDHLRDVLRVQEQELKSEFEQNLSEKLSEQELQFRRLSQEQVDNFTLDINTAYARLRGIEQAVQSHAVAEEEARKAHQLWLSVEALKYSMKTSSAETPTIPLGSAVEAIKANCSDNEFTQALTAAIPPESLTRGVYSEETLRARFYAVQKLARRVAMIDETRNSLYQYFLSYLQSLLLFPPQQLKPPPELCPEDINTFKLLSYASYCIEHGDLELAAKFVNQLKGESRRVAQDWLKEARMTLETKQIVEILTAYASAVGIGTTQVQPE

Variants of: B1
Conditions: with mic60_human IMMT

For MPPCLTTWLSQLLKDNSYPLVLGPKNFGATPNKSNNHAHYYNHPNPNFPNSPHPYHPR [D47N], which “effect of a mutation on the interaction” value is on record?
The value was “with no effect”.
